{"source": "patent US20240343802A1", "about": "(Zymeworks, published 2024)", "binders": {"B1": {"name": "v1379, anti-CD19 BiTE (VL-VH) scFv / anti-CD3 BiTE (VH-VL) scFv heterodimeric Fc (bispecific antibody)", "chain 1": "DIQLTQSPASLAVSLGQRATISCKASQSVDYDGDSYLNWYQQIPGQPPKLLIYDASNLVSGIPPRFSGSGSGTDFTLNIHPVEKVDAATYHCQQSTEDPWTFGGGTKLEIKGGGGSGGGGSGGGGSQVQLQQSGAELVRPGSSVKISCKASGYAFSSYWMNWVKQRPGQGLEWIGQIWPGDGDTNYNGKFKGKATLTADESSSTAYMQLSSLASEDSAVYFCARRETTTVGRYYYAMDYWGQGTTVTVSSAAEPKSSDKTHTCPPCPAPELLGGPSVFLFPPKPKDTLMISRTPEVTCVVVDVSHEDPEVKFNWYVDGVEVHNAKTKPREEQYNSTYRVVSVLTVLHQDWLNGKEYKCKVSNKALPAPIEKTISKAKGQPREPQVYVYPPSRDELTKNQVSLTCLVKGFYPSDIAVEWESNGQPENNYKTTPPVLDSDGSFALVSKLTVDKSRWQQGNVFSCSVMHEALHNHYTQKSLSLSPGK", "chain 2": "not shown", "notes": "WT effector Fc; copies: 1 + 1"}, "B2": {"name": "one-armed anti-CD19 antibody (v869: anti-CD19 BiTE scFv (VL-VH) on chain A, Fc only on chain B) (antibody)", "chain 1": "B1 chain 1 with V387T", "chain 2": "not shown", "notes": "also called anti-CD19 OAA; anti-CD19 one arm constructs"}, "B3": {"name": "v1666-213-A (bispecific antibody)", "chain 1": "not shown", "chain 2": "B1 chain 1 with L271A, L272A, D302S, Y388L, T403L, K429L, T431W, A442F, V444Y"}, "B4": {"name": "v875, bispecific anti-CD19 BiTE (VL-VH) scFv / anti-CD3 OKT3 (VL-VH) scFv on a heterodimeric IgG1 Fc (bispecific antibody)", "chain 1": "B1 chain 1 with V387T", "chain 2": "not shown", "notes": "Chain A/B is assigned by order only; copies: 1 + 1"}, "B5": {"name": "v1381, anti-CD19 BiTE (VL-VH) scFv / anti-CD3 BiTE (VH-VL) scFv heterodimeric Fc with N297A (bispecific antibody)", "chain 1": "B1 chain 1 with N334A", "chain 2": "not shown", "notes": "Fc knock-out N297A on both chains; copies: 1 + 1"}, "B6": {"name": "v873, bispecific anti-CD19 BiTE (VL-VH) scFv / anti-CD3 BiTE (VH-VL) scFv on a heterodimeric IgG1 Fc (bispecific antibody)", "chain 1": "B1 chain 1 with V387T", "chain 2": "not shown", "notes": "chain A/B is assigned by order only; also called bispecific CD19-CD3(VH-VL-BiTE)"}}, "key": {"[1]": {"target": "T1, CD19 on CD19-expressing Raji B cells (human, UniProt P15391 20-556)", "T1 construct": "whole, on cells", "T1 sequence (looked up)": "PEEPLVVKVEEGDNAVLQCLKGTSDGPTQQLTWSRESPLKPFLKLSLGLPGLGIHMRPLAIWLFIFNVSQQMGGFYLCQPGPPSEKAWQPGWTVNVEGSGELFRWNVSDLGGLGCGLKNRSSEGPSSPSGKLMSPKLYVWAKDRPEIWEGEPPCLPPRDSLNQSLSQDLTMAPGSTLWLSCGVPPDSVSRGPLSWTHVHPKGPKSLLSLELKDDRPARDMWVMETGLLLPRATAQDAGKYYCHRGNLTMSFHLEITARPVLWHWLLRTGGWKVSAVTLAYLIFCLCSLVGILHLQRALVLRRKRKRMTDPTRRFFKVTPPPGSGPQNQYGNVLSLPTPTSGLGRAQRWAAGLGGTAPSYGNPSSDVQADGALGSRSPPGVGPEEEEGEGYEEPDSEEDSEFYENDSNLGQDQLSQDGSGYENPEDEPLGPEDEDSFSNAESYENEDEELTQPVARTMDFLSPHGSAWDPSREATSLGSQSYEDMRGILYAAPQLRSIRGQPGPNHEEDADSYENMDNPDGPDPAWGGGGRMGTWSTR", "test": "FACS, Raji cells"}, "CD32aWT": {"target": "T2, CD32aWT (UniProt P12318 36-218)", "T2 construct": "also called CS32a", "T2 sequence (looked up)": "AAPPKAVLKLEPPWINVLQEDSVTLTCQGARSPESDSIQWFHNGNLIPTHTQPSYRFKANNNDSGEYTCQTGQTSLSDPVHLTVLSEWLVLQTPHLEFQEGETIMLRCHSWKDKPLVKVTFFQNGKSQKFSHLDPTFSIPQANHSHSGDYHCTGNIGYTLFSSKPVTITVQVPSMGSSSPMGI", "test": "SPR, antibody captured, FcγR injected"}, "CD32bWT": {"target": "T3, CD32bWT (UniProt P31994 43-217)", "T3 sequence (looked up)": "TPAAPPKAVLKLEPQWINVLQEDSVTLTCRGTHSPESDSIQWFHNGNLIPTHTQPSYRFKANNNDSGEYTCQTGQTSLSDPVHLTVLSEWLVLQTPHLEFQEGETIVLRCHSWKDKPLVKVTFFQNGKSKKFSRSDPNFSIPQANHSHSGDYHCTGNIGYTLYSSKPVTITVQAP", "test": "SPR, antibody captured, FcγR injected"}, "[2]": {"target": "T4, CD3 on CD3-expressing T cells (Jurkat, HPB-ALL) (UniProt P07766 23-207)", "T4 construct": "whole, on cells; A multi-chain complex on cells; also called CD3 complex", "test": "whole cell binding by FACS on CD3-expressing Jurkat T cells; concentration not shown"}, "[3]": {"target": "T5, cynomologous CD3 receptor antigen (coated, ELISA) (cynomolgus [Macaca fascicularis], UniProt Q95LI5 22-117)", "T5 sequence (looked up)": "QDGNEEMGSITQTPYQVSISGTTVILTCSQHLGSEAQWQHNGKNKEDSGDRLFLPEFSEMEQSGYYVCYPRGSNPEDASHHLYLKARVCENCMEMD", "test": "ELISA on coated cynomolgus CD3 receptor antigen ('Cyno-CD3-HEK'), anti-human Fcgamma specific secondary antibody, TMB, OD450"}, "[4]": {"target": "T4, CD3 on CD3-expressing T cells (Jurkat, …)", "test": "FACS, Jurkat cells"}, "[5]": {"target": "T4, CD3 on CD3-expressing T cells (Jurkat, …)", "test": "FACS, HPB-ALL cells"}, "[6]": {"target": "T4, CD3 on CD3-expressing T cells (Jurkat, …)", "test": "FACS, HBP-ALL T cells"}, "CD16aWT": {"target": "CD16aWT (UniProt P08637 17-208)", "test": "SPR, antibody captured, FcγR injected"}, "[7]": {"target": "T6, mouse CD19 on Mouse spleen cells (mouse, UniProt P25918)", "T6 construct": "on the surface of freshly isolated mouse spleen cells", "T6 sequence (CD19 on the cell surface, looked up)": "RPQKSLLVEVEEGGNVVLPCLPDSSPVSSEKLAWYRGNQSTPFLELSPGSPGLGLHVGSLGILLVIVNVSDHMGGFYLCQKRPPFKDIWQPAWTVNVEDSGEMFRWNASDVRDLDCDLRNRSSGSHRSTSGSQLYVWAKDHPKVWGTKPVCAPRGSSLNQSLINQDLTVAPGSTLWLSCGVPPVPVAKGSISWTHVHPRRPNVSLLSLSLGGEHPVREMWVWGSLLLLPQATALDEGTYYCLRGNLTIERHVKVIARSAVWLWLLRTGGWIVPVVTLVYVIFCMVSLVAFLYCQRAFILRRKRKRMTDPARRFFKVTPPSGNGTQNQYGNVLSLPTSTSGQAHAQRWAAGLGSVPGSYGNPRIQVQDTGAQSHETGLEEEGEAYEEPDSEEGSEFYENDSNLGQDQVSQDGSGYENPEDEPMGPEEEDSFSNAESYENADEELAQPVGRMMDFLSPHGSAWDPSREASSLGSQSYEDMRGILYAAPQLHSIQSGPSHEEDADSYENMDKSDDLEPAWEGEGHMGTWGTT", "test": "FACS on freshly isolated mouse spleen cells, Mean RFU normalized to human IgG"}, "[8]": {"target": "T1, CD19 on CD19-expressing Raji B cells", "test": "FACS, Raji cells", "remark": "listed apart in the source"}, "[9]": {"target": "T1, CD19 on CD19-expressing Raji B cells", "test": "whole cell binding by FACS on Raji B cells, RFU against concentration (nM, log axis)"}}, "note": "Positions count from the first letter of the chain named. Names and notes keep the numbering of the source. Like-named read-outs stand apart in the source and are kept apart here.", "data": [{"binder": "B1", "values": [{"measurement": "Kd", "setting": "[1]", "result": 2.12, "unit": "nM"}, {"measurement": "Kd", "setting": "CD32aWT", "result": 600, "unit": "nM"}, {"measurement": "Kd", "setting": "CD32bWT", "result": 470, "unit": "nM"}]}, {"binder": "B2", "values": [{"measurement": "binding result", "setting": "[2]", "result": "no binding"}]}, {"binder": "B3", "values": [{"measurement": "binding result", "setting": "[3]", "result": "no binding (tested: 300 nM)"}]}, {"binder": "B4", "values": [{"measurement": "Bmax (OD450)", "setting": "[4]", "result": 1.59, "unit": "OD450"}, {"measurement": "Kd", "setting": "[4]", "result": 21.4, "unit": "nM"}, {"measurement": "Kd", "setting": "[5]", "result": 4.7, "unit": "nM"}, {"measurement": "Kd", "setting": "[6]", "result": 19.1, "unit": "nM"}, {"measurement": "Kd", "setting": "CD16aWT", "result": 1000, "unit": "nM"}, {"measurement": "Kd", "setting": "CD32aWT", "result": 590, "unit": "nM"}, {"measurement": "Kd", "setting": "CD32bWT", "result": 430, "unit": "nM"}, {"measurement": "binding result", "setting": "[7]", "result": "no binding (tested: 100 nM)"}]}, {"binder": "B5", "values": [{"measurement": "Bmax", "setting": "[1]", "result": 13900}, {"measurement": "Kd", "setting": "[1]", "result": 2.36, "unit": "nM"}, {"measurement": "binding result", "setting": "CD16aWT", "result": "no binding (tested: FcγR injected up to 10,000 nM)"}, {"measurement": "binding result", "setting": "CD32aWT", "result": "no binding (tested: FcγR injected up to 10,000 nM)"}, {"measurement": "binding result", "setting": "CD32bWT", "result": "no binding (tested: FcγR injected up to 10,000 nM)"}]}, {"binder": "B6", "values": [{"measurement": "Kd", "setting": "[8]", "result": 2.7, "unit": "nM"}, {"measurement": "binding result", "setting": "[7]", "result": "no binding (tested: 100 nM)"}, {"measurement": "EC50 (read off the curve)", "setting": "[9]", "result": "~3", "unit": "nM"}]}]}
